Results on 1 substance are retold here after paper PMC10706726.

The test has as its target cLUC-LcMYB111 (litchi).

Substance LcHY5-nLUC (natural protein) showed a dual-luciferase reporter (LUC/REN): activation of proLcFLS-A when LcMYB111 was co-infiltrated with LcHY5 (untagged effectors) of 18.8 fold and a dual-luciferase reporter (LUC/REN): activation of proLcFLS-B when LcMYB111 was co-infiltrated with LcHY5 (untagged effectors) of 5.78 fold.
